Test results: patent US20070134256A1 (US Dept. of Health and Human Services, published 2007)

Key:
[1] = biological target: T1, dengue type 4 virus (DENV-4), strain 814669, virions (dengue type 4 virus, UniProt P09866 280-774; P09866 114-279); assay: ELISA, virion-coated plate, Fab from ~300 µg/ml
[2] = biological target: T2, dengue type 3 virus (DENV-3), strain H87, virions (dengue type 3 virus, UniProt P27915 281-773; P27915 115-280); assay: ELISA, virion-coated plate, Fab from ~300 µg/ml
[3] = biological target: T3, dengue type 1 virus (DENV-1), Western Pacific strain, virions (dengue type 1 virus, UniProt P17763 281-775; P17763 115-280); assay: ELISA, virion-coated plate, Fab from ~300 µg/ml
[4] = biological target: T4, dengue type 2 virus (DENV-2), prototype New Guinea C strain, virions (dengue type 2 virus, UniProt P14340 281-775; P14340 115-280); assay: ELISA, virion-coated plate, Fab from ~300 µg/ml
DENV-4 prM glycoprotein = DENV-4 prM glycoprotein (dengue type 4 virus, UniProt P09866 114-279); assay: radioimmunoprecipitation of prM expressed alone by recombinant vaccinia virus
[5] = biological target: T2, dengue type 3 virus (DENV-3), strain …; assay: ELISA, virion-coated plate
[6] = biological target: T3, dengue type 1 virus (DENV-1), Western …; assay: ELISA, virion-coated plate
[7] = biological target: T4, dengue type 2 virus (DENV-2), prototype …; assay: ELISA, virion-coated plate
[8] = biological target: T1, dengue type 4 virus (DENV-4), strain …; assay: cell-based or functional assay

B1: chimpanzee Fab 5D9 (Fab, V domains shown)
VH: EVQLLESGPGLVKPSETLSLTCTVSGGSISDFYWSWLRQSPGKGLEWIGVAHSRVSAYYNPSLKSRVTISVDTSKNQLSLRLSAVTAADAALYYCARQGTGTTGVSEDPFDLWGQGTKVIVSL
VL: ELTQSPSSLSASVGDRVTITCRASQGISNRLNWYQQKPGQGPKFLMYDASSLVSGVPSRFSGSGSGTDFTLTISSLQPEDFAVYYCQQFNSYPLTFGGGTKLEIKR
- ELISA titer of Fab binding [1]: 3.41 log10 of reciprocal dilution
- ELISA titer of Fab binding [2]: < 1 log10 of reciprocal dilution
- ELISA titer of Fab binding [3]: < 1 log10 of reciprocal dilution
- ELISA titer of Fab binding [4]: < 1 log10 of reciprocal dilution
- binding result (DENV-4 prM glycoprotein): no binding
- binding result [5]: no binding
- binding result [6]: no binding
- binding result [7]: no binding
- PRNT50 titer [8]: 0.58 µg/mL
